From patent publication US20220002423A1 (GENERAL HOSPITAL, published 2022)

Legend:
[1] = molecular target: T1, Amino acid residues 74-93 of human TNFR2 (human); assay: ELISA, antibody with TNFα added
T1 peptide: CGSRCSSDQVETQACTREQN

[2] = molecular target: T2, Amino acid residues 66-85 of human TNFR2 (human); assay: ELISA, antibody with TNFα added
T2 peptide: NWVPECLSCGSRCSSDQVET

[3] = molecular target: Full-length human TNFR2 (human) (UniProt P20333); assay: ELISA; categorical score, 0 lowest to 4 highest affinity
[4] = molecular target: T3, Amino acid residues 98-117 of human TNFR2 (human); assay: ELISA, coated linear peptides 1 µg/well, antibody 0.1 µg/well
T3 sequence (peptide): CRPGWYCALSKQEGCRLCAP

[5] = molecular target: T4, Amino acid residues 106-125 of human TNFR2 (human); assay: as above
T4 sequence (peptide): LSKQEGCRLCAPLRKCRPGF

[6] = molecular target: T5, Amino acid residues 108-127 of human TNFR2 (human); assay: as above
T5 sequence (peptide): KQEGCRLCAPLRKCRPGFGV

[7] = molecular target: T6, Amino acid residues 26-45 of human TNFR2 (human); assay: as above
T6 sequence (peptide): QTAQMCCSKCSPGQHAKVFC

[8] = molecular target: T3, Amino acid residues 98-117 of human TNFR2 (human); assay: ELISA on TNFR2 peptide fragment; categorical score, 0 lowest to 4 highest affinity
[9] = molecular target: T4, Amino acid residues 106-125 of human TNFR2 (human); assay: as above
[10] = molecular target: T5, Amino acid residues 108-127 of human TNFR2 (human); assay: as above
[11] = molecular target: T7, Amino acid residues 34-53 of human TNFR2 (human); assay: as above
T7 sequence (peptide): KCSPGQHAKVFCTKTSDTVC

[12] = molecular target: T6, Amino acid residues 26-45 of human TNFR2 (human); assay: as above
[13] = molecular target: T8, Amino acid residues 50-69 of human TNFR2 (human); assay: as above
T8 peptide: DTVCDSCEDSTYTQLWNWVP

[14] = molecular target: T9, Amino acid residues 1-20 of human TNFR2 (human); assay: as above
T9 construct: 20-mer fragment
T9 peptide: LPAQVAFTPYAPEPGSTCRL

[15] = molecular target: T10, Amino acid residues 138-157 of human TNFR2 (human); assay: as above
T10 peptide: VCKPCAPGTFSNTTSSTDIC

[16] = molecular target: T11, Amino acid residues 114-133 of human TNFR2 (human); assay: as above
T11 peptide: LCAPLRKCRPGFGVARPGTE

[17] = molecular target: T12, Amino acid residues 162-181 of human TNFR2 (human); assay: as above
T12 peptide: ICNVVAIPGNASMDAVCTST

[18] = molecular target: T13, Amino acid residues 82-101 of human TNFR2 (human); assay: as above
T13 peptide: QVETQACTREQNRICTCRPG

[19] = molecular target: T14, Amino acid residues 90-109 of human TNFR2 (human); assay: as above
T14 peptide: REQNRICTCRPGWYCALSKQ

[20] = molecular target: T15, Amino acid residues 58-77 of human TNFR2 (human); assay: as above
T15 peptide: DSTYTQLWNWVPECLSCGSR

[21] = molecular target: T16, Amino acid residues 42-61 of human TNFR2 (human); assay: as above
T16 peptide: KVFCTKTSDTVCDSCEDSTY

[22] = molecular target: T17, Amino acid residues 130-149 of human TNFR2 (human); assay: as above
T17 peptide: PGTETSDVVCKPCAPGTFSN

[23] = molecular target: T18, Amino acid residues 170-189 of human TNFR2 (human); assay: as above
T18 peptide: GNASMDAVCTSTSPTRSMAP

[24] = molecular target: T19, Amino acid residues 146-165 of human TNFR2 (human); assay: as above
T19 peptide: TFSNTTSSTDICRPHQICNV

[25] = molecular target: T2, Amino acid residues 66-85 of human TNFR2; assay: as above
[26] = molecular target: T3, Amino acid residues 98-117 of human TNFR2 (human); assay: ELISA, antibody alone
[27] = molecular target: T4, Amino acid residues 106-125 of human TNFR2 (human); assay: ELISA, antibody alone
[28] = molecular target: T7, Amino acid residues 34-53 of human TNFR2 (human); assay: ELISA, antibody alone
[29] = molecular target: T6, Amino acid residues 26-45 of human TNFR2 (human); assay: ELISA, antibody alone

B1: agonistic TNFR2 antibody TNFRAG1 (antibody, V domains shown)
VH: EVQLQQFGAELVKPGASVKISCKASGYTFTDYNIDWVKQSHGKSLEWIGDINPNYDSTSYSQKFRGKATLTVDKSSSTAYMELRSLTSEDTAVYYCARGNSWYFDVWGAGTTVTVSS
VL: QIVLTQSPALMSASPGEKVTMTCSASSSVRYMYWYQQKPRSSPKPWIYLTSNLASGVPARFSGSGSGTSYSLTISSMEAEDAATYYCQQWSSNPLTFGAGTKLELK
notes: the primary antibodies were detected with secondary antibodies against rodent IgG; also called monoclonal TNFR2 antibody TNFRAG1; TNFR2 agonist antibody
[1]
  binding result: no binding
[2]
  binding result: no binding
[3]
  Affinity Score: 4
[4]
  Affinity: 1
  Reading: 0
[5]
  Affinity: 2
  Reading: 0
[6]
  Affinity: 2
  Reading: 0
[7]
  Affinity: 1
  Reading: 0
[8]
  Affinity Score: 1
[9]
  Affinity Score: 2
[10]
  Affinity Score: 2
[11]
  Affinity Score: 0
[12]
  Affinity Score: 1
[13]
  Affinity Score: 0
[14]
  Affinity Score: 0
[15]
  Affinity Score: 0
[16]
  Affinity Score: 0
[17]
  Affinity Score: 0
[18]
  Affinity Score: 0
[19]
  Affinity Score: 2
[20]
  Affinity Score: 0
[21]
  Affinity Score: 0
[22]
  Affinity Score: 0
[23]
  Affinity Score: 0
[24]
  Affinity Score: 0
[25]
  Affinity Score: 0
[26]
  Affinity: 1
  Reading: 2
[27]
  Reading: 2
[28]
  Affinity: 1
[29]
  Affinity: 1
  Reading: 0.1
